Changes are numbered by the printed parent chain. In names and notes the source's numbering stands. Entries after “also recorded” stand apart in the source; their conditions may differ.
B1: RiSxph: Ranitomeya imitator (Mimic poison frog) saxiphilin, SEQ ID NO: 6 (protein)
chain: MRRSSYAASQEMRMTLRVLLCLCLWALSSAAPNTRNVRWCVTSDTEEQKCNDLVTSCHVDEILLICVKKSSTEDCVRAISNGEADAISLDSKDVYKASLDPFNLKPIMTEAYSESEHTPCMRHRQSVLGGKIMKIGAFVPKCDEKGNYVPKQCHGSTGYCWCLNENGEEIEGTRTPPGNPGLTCENKANKPPCLKERQKLLSAKPSPAVFVPECDEKGNYRPQQSHVYSWCVDEYGEEVFGSRSFPGKPPKPCEASGETPCIKERNKVLSAAEPLLGAFVPDCDEKGYFSPLQSHGSTGYSWCVTKNGDEIKGTRTGPGQSPPTCEVPAPVTLHYAVAVVKKSSSFHLDQLKGKRSCHSAVGEAAGWVAPLNVLLKKKLLLWEEPEPKTIEKVASEIFSASCAPGAQEANLCEQCAGQEDKCTRGPGEPYYGDEGAFRCLREDKGDVAFVEDTALTGQYSDNFELLCPDNTRRPLSQYKICNFGRIPRHAVVTRSSGDKMKDITEYLLQAQKKECKLFSSTHGKDLLFEDTTSALIALPSAMDTFLFLGPDLFNGMKTLNGARPPQVNQQIRWCPQSKNEKKKCDDWSSVSGGAIKCTEPSSGLECIKMILKGEAEAVNLDIEHSYIALKCGLLPSVDEYRNKDDLIPCQIPGSEYSEFGSYRIVALVKKTDKDLTWNNLQGKKSCHTRAGDMIGWNIPVYLISKKTKNCDLGSYFSQSCAPGSPIDSNLCKLCIGDPQNPQANTKCSISDKEAYYGHEGAIRCLVEKGDVAFVPHTAIFENTDGKNPALWAKDLKSTDFELLCPDGSRAPVNDYKKCKLSGIANQIAITRPESVKDVVRIIQNQQSLYGRTGSQKDIFQMFSSSYGQNLLFSDRTQCLVEFDRMLDRDIMDDYFGKPFHKHLLRDNDCLPKSALASACSFHH
modifications: Ranitomeya imitator
B2: MaSxph: Mantella aurantiaca (Golden mantella) saxiphilin, SEQ ID NO: 3 (protein, listed as Mantella aurantiaca)
chain: MALTFQTALYFTIIGLSFVTSSARDVRWCVISDLEQKKCNDLVGSCKVSGITLVCVHRSSTENCMTAIRDEQADAMFLDSGDVYKASMSPYNLKPIIAESYSSHKECLKKRQEALGGANVLGQFVPQCDEKGSYQPQQCYGSTGHCWCVNAIGEEIVGTKTQPGQTQATCERHDQTKCLKDRQKALAKKMIGGFVPQCDEKGNFKPRQCHGSTGYCWCTNANGEKIAATNTPPQQSPPTCERHDLDSCHYAVAVVKKSSIFQFNQLKGKRSCHSGVSKTDGWKAPVSVLVDKNLLSWDRAAKESIEKAVSKFFSDSCIPGATETNLCNQCMGEGGKKCMSSHDEPYYGDHGAFRCLKEDKGDVAFLKNTVLSDTHSEDYELLCPDNTRKPLNKYKECNLGKVPADAVVTRKSGDKIKDINDFLLEAQKKHCQLFSSAHGKDLMFDDSTTQLSLLPPEVDVFFFLGVQWLNTMKTLTADVKPPSKNKVRWCTVNNLEKMKCDDWSAVSGGAIECTEASSPEHCIKQIVKGEADAVTLDVQYMYEALKCGLLPAVEEYHNKDDFGPCKTPGSEIKDFGAKRAVALVKKSNKDINWHNLKGKKSCHTGVGDQAGWIIPVGLISRQIDNCNIDSFFSESCAPGSDTTSNFCKLCIGDPSNPMANTKCSLSDKEAYHGNEGAIRCLVEKGDVAFVHHTAVFENTDGKNPAEWAANLKSEDFEILCLDGSRAPVSNYMTCRLSGVPPRAIVTREESVSDVVRILINQQSLFGRNGFEKDMFQMFSSNKGQNLLFNDGTQCLIEFDRQPRGIMEDYFGKPYYNAVYNTSKCVLPSELTSACTFKHC
B3: F784A: RcSxph STX binding pocket mutant F784A (protein)
chain: MAPTFQTALFFTIISLSFAAPNAKQVRWCAISDLEQKKCNDLVGSCNVPDITLVCVLRSSTEDCMTAIKDGQADAMFLDSGEVYEASKDPYNLKPIIAEPYSSNRDLQKCLKERQQALAKKMIGHYIPQCDEKGNYQPQQCHGSTGHCWCVNAMGEKISGTNTPPGQTRATCERHELPKCLKERQVALGGDEKVLGRFVPQCDEKGNYEPQQFHGSTGYSWCVNAIGEEIAGTKTPPGKIPATCQKHDLVTTCHYAVAMVKKSSAFQFNQLKGKRSCHSGVSKTDGWKALVTVLVEKKLLSWDGPAKESIQRAMSKFFSVSCIPGATQTNLCKQCKGEEGKNCKNSHDEPYYGNYGAFRCLKEDMGDVAFLRSTALSDEHSEVYELLCPDNTRKPLNKYKECNLGTVPAGTVVTRKISDKTEDINNFLMEAQKRQCKLFSSAHGKDLMFDDSTLQLALLSSEVDAFLYLGVKLFHAMKALTGDAHLPSKNKVRWCTINKLEKMKCDDWSAVSGGAIACTEASCPKGCVKQILKGEADAVKLEVQYMYEALMCGLLPAVEEYHNKDDFGPCKTPGSPYTDFGTLRAVALVKKSNKDINWNNIKGKKSCHTGVGDIAGWVIPVSLIRRQNDNSDIDSFFGESCAPGSDTKSNLCKLCIGDPKNSAANTKCSLSDKEAYYGNQGAFRCLVEKGDVAFVPHTVVFENTDGKNPAVWAKNLKSEDFELLCLDGSRAPVSNYKSCKLSGIPPPAIVTREESISDVVRIVANQQSLYGRKGFEKDMFQLFSSNKGNNLLFNDNTQCLITADRQPKDIMEDYFGKPYYTTVYGASRSAMSSELISACTIKHC
B4: Q787A: RcSxph STX binding pocket mutant Q787A (protein)
chain: B3 chain with A803F, Q806A
B5: I782A/Y558A: RcSxph STX binding pocket double mutant I782A/Y558A (protein)
chain: B3 chain with Y577A, I801A, A803F
B6: I782F: RcSxph STX binding pocket mutant I782F (protein)
chain: B3 chain with I801F, A803F
B7: Q787E: RcSxph STX binding pocket mutant Q787E (protein)
chain: B3 chain with A803F, Q806E
B8: Y558F: RcSxph STX binding pocket mutant Y558F (protein)
chain: B3 chain with Y577F, A803F
B9: D785A: RcSxph STX binding pocket mutant D785A (protein)
chain: B3 chain with A803F, D804A
B10: Y795A: RcSxph STX binding pocket mutant Y795A (protein)
chain: B3 chain with A803F, Y814A
B11: K789A: RcSxph STX binding pocket mutant K789A (protein)
chain: B3 chain with A803F, K808A
B12: T563A: RcSxph STX binding pocket mutant T563A (protein)
chain: B3 chain with T582A, A803F

Format: binding
Details: FP

| Molecule | STX/F-STX affinity compared with RcSxph |
| --- | --- |
| B1 | higher affinity for STX than RcSxph; also recorded: binds STX more strongly than RcSxph |
| B2 | enhanced affinity |

Same assay, conditions: FP, 1 nM F-STX, 25° C.; errors S.D.

| Molecule | Kd [nM] |
| --- | --- |
| B3 | 725 ± 109 |
| B4 | 11.3 ± 1.1 |
| B5 | 1.2 ± 0.2 |
| B6 | 16.1 ± 4.1 |
| B7 | 6.4 ± 1.6 |
| B8 | 6.3 ± 2.3 |
| B9 | 19.5 ± 2.5 |
| B10 | 8.4 ± 2.1 |
| B11 | 5.1 ± 1.7 |
| B12 | 5.3 ± 0.5 |
| B1 | 0.8 ± 0.3 |
| B2 | 0.4 ± 0.1 |

Same assay, conditions: ΔΔG = RT ln(Kd mutant or XSxph/Kd RcSxph); T = 298K; FP with F-STX

| Molecule | ΔΔG [kcal/mol] |
| --- | --- |
| B3 | 2.71 |
| B4 | 0.25 |
| B5 | -1.07 |
| B6 | 0.46 |
| B7 | -0.09 |
| B8 | -0.10 |
| B9 | 0.57 |
| B10 | 0.08 |
| B11 | -0.22 |
| B12 | -0.20 |
| B1 | -1.32 |
| B2 | -1.73 |

Source: patent US20260034194A1, “PHARMACEUTICAL COMPOSITIONS AND METHODS OF TREATING PSP” (priority 2022, published 2026)
